Measurements from the supplement of paper PMC11246515.
± gives the standard deviation of the averaged measurements.

Test: total protein half-life in vivo (active degradation + dilution); higher = more stable protein
[1] = E. coli NCM3722 delta-clpP delta-lon delta-hslV, growth: N-lim chemostat, doubling time 6 h
[2] = E. coli NCM3722 delta-clpP, growth: N-lim chemostat, doubling time 6 h
[3] = E. coli NCM3722 delta-hslV, growth: N-lim chemostat, doubling time 6 h
[4] = E. coli NCM3722 delta-lon, growth: N-lim chemostat, doubling time 6 h
[5] = E. coli NCM3722 delta-smpB, growth: N-lim chemostat, doubling time 6 h
[6] = wild type E. coli NCM3722, growth: C-lim chemostat, doubling time 3 h
[7] = wild type E. coli NCM3722, growth: C-lim chemostat, doubling time 6 h
[8] = wild type E. coli NCM3722, growth: C-lim chemostat, doubling time 12 h
[9] = wild type E. coli NCM3722, growth: N-lim chemostat, doubling time 6 h
[10] = wild type E. coli NCM3722, growth: N-lim chemostat, doubling time 12 h
[11] = wild type E. coli NCM3722, growth: P-lim chemostat, doubling time 6 h
[12] = wild type E. coli NCM3722, growth: P-lim chemostat, doubling time 12 h

Sequence	total protein half-life in vivo [1] [h]	total protein half-life in vivo [2] [h]	total protein half-life in vivo [3] [h]	total protein half-life in vivo [4] [h]	total protein half-life in vivo [5] [h]	total protein half-life in vivo [6] [h]	total protein half-life in vivo [7] [h]	total protein half-life in vivo [8] [h]	total protein half-life in vivo [9] [h]	total protein half-life in vivo [10] [h]	total protein half-life in vivo [11] [h]	total protein half-life in vivo [12] [h]
MKLNDSNLFRQQALINGEWLDANNGEAIDVTNPANGDKLGSVPKMGADETRAAIDAANRALPAWRALTAKERATILRNWFNLMMEHQDDLARLMTLEQGKPLAEAKGEISYAASFIEWFAEEGKRIYGDTIPGHQADKRLIVIKQPIGVTAAITPWNFPAAMITRKAGPALAAGCTMVLKPASQTPFSALALAELAIRAGVPAGVFNVVTGSAGAVGNELTSNPLVRKLSFTGSTEIGRQLMEQCAKDIKKVSLELGGNAPFIVFDDADLDKAVEGALASKFRNAGQTCVCANRLYVQDGVYDRFAEKLQQAVSKLHIGDGLDNGVTIGPLIDEKAVAKVEEHIADALEKGARVVCGGKAHERGGNFFQPTILVDVPANAKVSKEETFGPLAPLFRFKDEADVIAQANDTEFGLAAYFYARDLSRVFRVGEALEYGIVGINTGIISNEVAPFGGIKASGLGREGSKYGIEDYLEIKYMCIGL	4.773 ± 0.035	4.35 ± 0.32	3.93 ± 0.08	4.251 ± 0.0095	3.87 ± 0.14	2.86 ± 0.26	5.44 ± 0.58	9.938 ± 0.016	3.96 ± 0.29	5.95 ± 0.61	5.72 ± 0.12	11 ± 0.44
MKLNIFTKSMIGMGLVCSALPALAMEAWNNQQGGNKYQVIFDGKIYENAWWVSSTNCPGKAKANDATNPWRLKRTATAAEISQFGNTLSCEKSGSSSSSNSNTPASNTPANGGSATPAQGTVPSNSSVVAWNKQQGGQTWYVVFNGAVYKNAWWVASSNCPGDAKSNDASNPWRYVRAATATEISETSNPQSCTSAPQPSPDVKPAPDVKPAPDVQPAPADKSNDNYAVVAWKGQEGSSTWYVIYNGGIYKNAWWVGAANCPGDAKENDASNPWRYVRAATATEISQYGNPGSCSVKPDNNGGAVTPVDPTPETPVTPTPDNSEPSTPADSVNDYSLQAWSGQEGSEIYHVIFNGNVYKNAWWVGSKDCPRGTSAENSNNPWRLERTATAAELSQYGNPTTCEIDNGGVIVADGFQASKAYSADSIVDYNDAHYKTSVDQDAWGFVPGGDNPWKKYEPAKAWSASTVYVKGDRVVVDGQAYEALFWTQSDNPALVANQNATGSNSRPWKPLGKAQSYSNEELNNAPQFNPETLYASDTLIRFNGVNYISQSKVQKVSPSDSNPWRVFVDWTGTKERVGTPKKAWPKHVYAPYVDFTLNTIPDLAALAKNHNVNHFTLAFVVSKDANTCLPTWGTAYGMQNYAQYSKIKALREAGGDVMLSIGGANNAPLAASCKNVDDLMQHYYDIVDNLNLKVLDFDIEGTWVADQASIERRNLAVKKVQDKWKSEGKDIAIWYTLPILPTGLTPEGMNVLSDAKAKGVELAGVNVMTMDYGNAICQSANTEGQNIHGKCATSAIANLHSQLKGLHPNKSDAEIDAMMGTTPMVGVNDVQGEVFYLSDARLVMQDAQKRNLGMVGIWSIARDLPGGTNLSPEFHGLTKEQAPKYAFSEIFAPFTKQ	4.89 ± 0.41	7.07 ± 0.34	5.22 ± 1.2	–	5.97 ± 0.68	–	5.72	10.9 ± 1.9	5.87 ± 0.36	12.9 ± 0.98	6.31 ± 0.59	–
MKLPVREFDAVVIGAGGAGMRAALQISQSGQTCALLSKVFPTRSHTVSAQGGITVALGNTHEDNWEWHMYDTVKGSDYIGDQDAIEYMCKTGPEAILELEHMGLPFSRLDDGRIYQRPFGGQSKNFGGEQAARTAAAADRTGHALLHTLYQQNLKNHTTIFSEWYALDLVKNQDGAVVGCTALCIETGEVVYFKARATVLATGGAGRIYQSTTNAHINTGDGVGMAIRAGVPVQDMEMWQFHPTGIAGAGVLVTEGCRGEGGYLLNKHGERFMERYAPNAKDLAGRDVVARSIMIEIREGRGCDGPWGPHAKLKLDHLGKEVLESRLPGILELSRTFAHVDPVKEPIPVIPTCHYMMGGIPTKVTGQALTVNEKGEDVVVPGLFAVGEIACVSVHGANRLGGNSLLDLVVFGRAAGLHLQESIAEQGALRDASESDVEASLDRLNRWNNNRNGEDPVAIRKALQECMQHNFSVFREGDAMAKGLEQLKVIRERLKNARLDDTSSEFNTQRVECLELDNLMETAYATAVSANFRTESRGAHSRFDFPDRDDENWLCHSLYLPESESMTRRSVNMEPKLRPAFPPKIRTY [P0AC41]	6.32 ± 0.098	6.04 ± 0.75	5.73 ± 0.33	5.17 ± 0.66	5.69 ± 0.26	3.17 ± 0.15	6.49 ± 0.39	11.6 ± 1.4	5.81 ± 0.35	11 ± 0.49	6.2 ± 0.12	13.3 ± 0.3
MKLQKQLLEAVEHKQLRPLDVQFALTVAGDEHPAVTLAAALLSHDAGEGHVCLPLSRLENNEASHPLLATCVSEIGELQNWEECLLASQAVSRGDEPTPMILCGDRLYLNRMWCNERTVARFFNEVNHAIEVDEALLAQTLDKLFPVSDEINWQKVAAAVALTRRISVISGGPGTGKTTTVAKLLAALIQMADGERCRIRLAAPTGKAAARLTESLGKALRQLPLTDEQKKRIPEDASTLHRLLGAQPGSQRLRHHAGNPLHLDVLVVDEASMIDLPMMSRLIDALPDHARVIFLGDRDQLASVEAGAVLGDICAYANAGFTAERARQLSRLTGTHVPAGTGTEAASLRDSLCLLQKSYRFGSDSGIGQLAAAINRGDKTAVKTVFQQDFTDIEKRLLQSGEDYIAMLEEALAGYGRYLDLLQARAEPDLIIQAFNEYQLLCALREGPFGVAGLNERIEQFMQQKRKIHRHPHSRWYEGRPVMIARNDSALGLFNGDIGIALDRGQGTRVWFAMPDGNIKSVQPSRLPEHETTWAMTVHKSQGSEFDHAALILPSQRTPVVTRELVYTAVTRARRRLSLYADERILSAAIATRTERRSGLAALFSSRE	4.81 ± 0.19	4.01 ± 1.1	2.9 ± 0.19	3.33 ± 0.44	2.739 ± 0.015	2.89 ± 0.43	4.39 ± 0.1	6.98 ± 0.28	2.97 ± 0.079	4.37 ± 0.29	4.36 ± 0.065	7.54 ± 0.6
MKLQLVAVGTKMPDWVQTGFTEYLRRFPKDMPFELIEIPAGKRGKNADIKRILDKEGEQMLAAAGKNRIVTLDIPGKPWDTPQLAAELERWKLDGRDVSLLIGGPEGLSPACKAAAEQSWSLSALTLPHPLVRVLVAESLYRAWSITTNHPYHRE [P0A8I8]	5.401 ± 0.053	3.23 ± 0.13	5.99 ± 1.1	6.18 ± 1.4	3.18 ± 0.43	2.78 ± 0.13	4.96 ± 0.5	9.34 ± 2	4.87 ± 0.21	8.26 ± 0.7	4.57 ± 0.29	9.29 ± 0.3
MKLQQLRYIVEVVNHNLNVSSTAEGLYTSQPGISKQVRMLEDELGIQIFSRSGKHLTQVTPAGQEIIRIAREVLSKVDAIKSVAGEHTWPDKGSLYIATTHTQARYALPNVIKGFIERYPRVSLHMHQGSPTQIADAVSKGNADFAIATEALHLYEDLVMLPCYHWNRAIVVTPDHPLAGKKAITIEELAQYPLVTYTFGFTGRSELDTAFNRAGLTPRIVFTATDADVIKTYVRLGLGVGVIASMAVDPVADPDLVRVDAHDIFSHSTTKIGFRRSTFLRSYMYDFIQRFAPHLTRDVVDAAVALRSNEEIEVMFKDIKLPEK [P0A9F3]	7.08 ± 0.39	4.65 ± 0.091	5.88 ± 0.65	5.93 ± 0.08	4.96 ± 0.18	2.98 ± 0.23	5.63 ± 0.12	10 ± 1.2	5.41 ± 0.36	11 ± 0.51	4.01 ± 0.32	7.28 ± 0.33
MKLRSVTYALFIAGLAAFSTSSLAAQSLRFGYETSQTDSQHIAAKKFNDLLQERTKGELKLKLFPDSTLGNAQAMISGVRGGTIDMEMSGSNNFAGLSPVMNLLDVPFLFRDTAHAHKTLDGKVGDDLKASLEGKGLKVLAYWENGWRDVTNSRAPVKTPADLKGLKIRTNNSPMNIAAFKVFGANPIPMPFAEVYTGLETRTIDAQEHPINVVWSAKFFEVQKFLSLTHHAYSPLLVVINKAKFDGLSPEFQQALVSSAQEAGNYQRKLVAEDQQKIIDGMKEAGVEVITDLDRKAFSDALGNQVRDMFVKDVPQGADLLKAVDEVQ	4.65	–	–	–	–	3.23 ± 0.18	6.69 ± 0.32	9.23 ± 0.3	–	–	–	–
